B1: TR2: Testicular Orphan Nuclear Receptor 2 (NR2C1), cDNA driver (protein, UniProt P13056 1-603, looked up)
Nuclear receptor subfamily 2 …: MATIEEIAHQIIEQQMGEIVTEQQTGQKIQIVTALDHNTQGKQFILTNHDGSTPSKVILARQDSTPGKVFLTTPDAAGVNQLFFTTPDLSAQHLQLLTDNSPDQGPNKVFDLCVVCGDKASGRHYGAVTCEGCKGFFKRSIRKNLVYSCRGSKDCIINKHHRNRCQYCRLQRCIAFGMKQDSVQCERKPIEVSREKSSNCAASTEKIYIRKDLRSPLTATPTFVTDSESTRSTGLLDSGMFMNIHPSGVKTESAVLMTSDKAESCQGDLSTLANVVTSLANLGKTKDLSQNSNEMSMIESLSNDDTSLCEFQEMQTNGDVSRAFDTLAKALNPGESTACQSSVAGMEGSVHLITGDSSINYTEKEGPLLSDSHVAFRLTMPSPMPEYLNVHYIGESASRLLFLSMHWALSIPSFQALGQENSISLVKAYWNELFTLGLAQCWQVMNVATILATFVNCLHNSLQQDKMSTERRKLLMEHIFKLQEFCNSMVKLCIDGYEYAYLKAIVLFSPDHPSLENMEQIEKFQEKAYVEFQDYITKTYPDDTYRLSRLLLRLPALRLMNATITEELFFKGLIGNIRIDSVIPHILKMEPADYNSQIIGHSI
B2: TR4: Testicular Orphan Nuclear Receptor 4 (NR2C2), cDNA driver (protein, UniProt P49116 1-596, looked up)
Nuclear receptor subfamily 2 …: MTSPSPRIQIISTDSAVASPQRIQIVTDQQTGQKIQIVTAVDASGSPKQQFILTSPDGAGTGKVILASPETSSAKQLIFTTSDNLVPGRIQIVTDSASVERLLGKTDVQRPQVVEYCVVCGDKASGRHYGAVSCEGCKGFFKRSVRKNLTYSCRSNQDCIINKHHRNRCQFCRLKKCLEMGMKMESVQSERKPFDVQREKPSNCAASTEKIYIRKDLRSPLIATPTFVADKDGARQTGLLDPGMLVNIQQPLIREDGTVLLATDSKAETSQGALGTLANVVTSLANLSESLNNGDTSEIQPEDQSASEITRAFDTLAKALNTTDSSSSPSLADGIDTSGGGSIHVISRDQSTPIIEVEGPLLSDTHVTFKLTMPSPMPEYLNVHYICESASRLLFLSMHWARSIPAFQALGQDCNTSLVRACWNELFTLGLAQCAQVMSLSTILAAIVNHLQNSIQEDKLSGDRIKQVMEHIWKLQEFCNSMAKLDIDGYEYAYLKAIVLFSPDHPGLTSTSQIEKFQEKAQMELQDYVQKTYSEDTYRLARILVRLPALRLMSSNITEELFFTGLIGNVSIDSIIPYILKMETAEYNGQITGASL
B3: Erb: Estrogen Receptor β (NR3A2, ERb), cDNA driver (protein, UniProt Q92731 1-530, looked up)
Estrogen receptor beta: MDIKNSPSSLNSPSSYNCSQSILPLEHGSIYIPSSYVDSHHEYPAMTFYSPAVMNYSIPSNVTNLEGGPGRQTTSPNVLWPTPGHLSPLVVHRQLSHLYAEPQKSPWCEARSLEHTLPVNRETLKRKVSGNRCASPVTGPGSKRDAHFCAVCSDYASGYHYGVWSCEGCKAFFKRSIQGHNDYICPATNQCTIDKNRRKSCQACRLRKCYEVGMVKCGSRRERCGYRLVRRQRSADEQLHCAGKAKRSGGHAPRVRELLLDALSPEQLVLTLLEAEPPHVLISRPSAPFTEASMMMSLTKLADKELVHMISWAKKIPGFVELSLFDQVRLLESCWMEVLMMGLMWRSIDHPGKLIFAPDLVLDRDEGKCVEGILEIFDMLLATTSRFRELKLQHKEYLCVKAMILLNSSMYPLVTATQDADSSRKLAHLLNAVTDALVWVIAKSGISSQQQSMRLANLLMLLSHVRHASNKGMEHLLNMKCKNVVPVYDLLLEMLNAHVLRGCKSSITGSECSPAEDSKSKEGSQNPQSQ
B4: HNF4g: Hepatocyte Nuclear Factor γ (NR2A2), cDNA driver (protein, UniProt Q14541 1-408, looked up)
Hepatocyte nuclear factor …: MNTTDNGVNCLCAICGDRATGKHYGASSCDGCKGFFRRSIRKSHVYSCRFSRQCVVDKDKRNQCRYCRLRKCFRAGMKKEAVQNERDRISTRRSTFDGSNIPSINTLAQAEVRSRQISVSSPGSSTDINVKKIASIGDVCESMKQQLLVLVEWAKYIPAFCELPLDDQVALLRAHAGEHLLLGATKRSMMYKDILLLGNNYVIHRNSCEVEISRVANRVLDELVRPFQEIQIDDNEYACLKAIVFFDPDAKGLSDPVKIKNMRFQVQIGLEDYINDRQYDSRGRFGELLLLLPTLQSITWQMIEQIQFVKLFGMVKIDNLLQEMLLGGASNDGSHLHHPMHPHLSQDPLTGQTILLGPMSTLVHADQISTPETPLPSPPQGSGQEQYKIAANQASVISHQHLSKQKQL

Assays:
mGhrelin promoter = assay: NHR-promoter luciferase screen, mGhrelin promoter; type: cell-based, mouse; conditions: for Luc. act., normalized to lacZ / Normalized Luc. act., normalized to control: Table 8, mGhrelin; for Results of assays of transcription factor (+/- ligand) with mGhrelin: Table 6d, luciferase activity relative to control (control = 1.00)
Method in brief: (§1)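 CV-1 cells were co-transfected with 50 ng NHR (homodimer or NHR/RXR heterodimer), 100 ng promoter-luciferase construct and 50 ng LacZ. Luciferase was normalized to LacZ and to a no-NHR/no-ligand control.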

mNPY promoter = assay: NHR-promoter luciferase screen, mNPY promoter; type: cell-based, mouse; conditions: for Results of assays of transcription factor (+/- ligand) with mNPY: Table 6d, luciferase activity relative to control (control = 1.00); for Luc. act., normalized to lacZ / Normalized Luc. act., normalized to control: mNPY promoter, HR component with or without ligand; for Normalized Luc. act., normalized to control: relative to control
Method in brief: as §1

mDio1 promoter = assay: NHR-promoter luciferase screen, mDio1 promoter; type: cell-based, mouse; conditions: for Luc. act., normalized to lacZ / Normalized Luc. act., normalized to control: Dio1, HR component without or with its ligand; for mDio1 promoter reporter activity: transcription factor +/- ligand, control = 1.00
Method in brief: as §1

mCAR promoter = assay: NHR-promoter luciferase screen, mCAR promoter; type: cell-based, mouse; conditions: for luciferase activity normalized to lacZ activity and to a control, mCAR: mCAR promoter-luciferase, CV-1 cells, NHR +/- ligand, control = 1.00; for Luc. act., normalized to lacZ / Normalized Luc. act., normalized to control: mCAR promoter, HR/ligand component
Method in brief: as §1

hCAR promoter = assay: NHR-promoter luciferase screen, hCAR promoter; type: cell-based, human; conditions: for luciferase activity normalized to lacZ activity and to a control, hCAR: hCAR promoter-luciferase, CV-1 cells, NHR +/- ligand, control = 1.00; for Luc. act., normalized to lacZ / Normalized Luc. act., normalized to control: hCAR promoter, HR/ligand component
Method in brief: as §1

| Molecule | Luc. act., normalized to lacZ (mGhrelin promoter) | Normalized Luc. act., normalized to control (mGhrelin promoter) | Results of assays of transcription factor (+/- ligand) with mGhrelin (mGhrelin promoter) | Results of assays of transcription factor (+/- ligand) with mNPY (mNPY promoter) | Luc. act., normalized to lacZ (mNPY promoter) | Normalized Luc. act., normalized to control (mNPY promoter) | Luc. act., normalized to lacZ (mDio1 promoter) | Normalized Luc. act., normalized to control (mDio1 promoter) | mDio1 promoter reporter activity (mDio1 promoter) | luciferase activity normalized to lacZ activity and to a control, mCAR (mCAR promoter) | Luc. act., normalized to lacZ (mCAR promoter) | Normalized Luc. act., normalized to control (mCAR promoter) | luciferase activity normalized to lacZ activity and to a control, hCAR (hCAR promoter) | Luc. act., normalized to lacZ (hCAR promoter) | Normalized Luc. act., normalized to control (hCAR promoter) | luciferase/LacZ, mGhrelin (selected results) (mGhrelin promoter; mGhrelin promoter-luciferase, NHR +/- ligand, control = 1.0) |
| --- | --- | --- | --- | --- | --- | --- | --- | --- | --- | --- | --- | --- | --- | --- | --- | --- |
| B1 | 63.2 | 1.2 | 1.21 | 1.27 | 106.6 | 1.3 | 14.8 | 3.3 | 3.32 | 0.81 | 31.0 | 0.8 | 2.30 | 72.7 | 2.3 |  |
| B2 | 273.5 | 5.2 | 5.23 | 2.86 | 239.8 | 2.9 | 56.0 | 12.6 | 12.55 | 2.52 | 96.2 | 2.5 | 3.15 | 99.4 | 3.1 | 5.2 |
| B3 | 47.5 | 0.9 | 0.91 | 0.79 | 66.5 | 0.8 | 9.3 | 2.1 | 2.09 | 1.18 | 44.8 | 1.2 | 0.81 | 25.7 | 0.8 |  |
| B4 | 58.1 | 1.1 | 1.11 | 0.96 | 80.7 | 1.0 | 15.6 | 3.5 | 3.49 | 1.43 | 54.5 | 1.4 | 0.81 | 25.5 | 0.8 |  |

Reference: patent publication US20110263454A1, “Methods of Identifying Functional Characteristics of Promoters, Transcription Modifying Proteins and Transcription Modulating Agents” (Salk Institute for Biological Studies, priority 2008, published 2011)
